From the supplement of paper PMC7125110
± gives the standard error. Variants at the floor of the assay were thinned out.

B1: glmS ribozyme (parent)
chain: AUAAAAGCGCCAGAACUACAGAAAUGUAGUUGACGAGGAGGAGGUUUAUCGAAUUUUCGGCGGAUGCCUCCAAA

Columns and labels:
Conditions in all cases: with glucosamine-6-phosphate
[1] = variants of: B1; test: self-cleavage kobs at 40 uM GlcN6P; higher = faster cleavage; RNA array
Procedure, shortened: (§1)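 Barcoded ribozyme variants on sequenced MiSeq chips were transcribed in situ by E. coli RNA polymerase and followed at 37 °C through a hybridised Cy3 probe. Glucosamine-6-phosphate at 40 μM to 10 mM in HEPES/KCl/Mg(OAc)2 buffer was flowed in, and tiles were imaged over ~14 h. Signals were normalised to baseline and to non-cleaving reference variants, and per-tile medians were fit to one- or two-exponential decays to give kobs. Weighted Michaelis–Menten fits across concentrations gave kcat and KM.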

[2] = variants of: B1; test: self-cleavage kobs at 160 uM GlcN6P; higher = faster cleavage; RNA array
Procedure, shortened: as §1

[3] = variants of: B1; test: self-cleavage kobs at 640 uM GlcN6P; higher = faster cleavage; RNA array
Procedure, shortened: as §1

[4] = variants of: B1; test: self-cleavage kobs at 2500 uM GlcN6P; higher = faster cleavage; RNA array
Procedure, shortened: as §1

[5] = variants of: B1; test: self-cleavage kobs at 10000 uM GlcN6P; higher = faster cleavage; RNA array
Procedure, shortened: as §1

| Variant | self-cleavage kobs at 40 uM GlcN6P [1] [s⁻¹] | self-cleavage kobs at 160 uM GlcN6P [2] [s⁻¹] | self-cleavage kobs at 640 uM GlcN6P [3] [s⁻¹] | self-cleavage kobs at 2500 uM GlcN6P [4] [s⁻¹] | self-cleavage kobs at 10000 uM GlcN6P [5] [s⁻¹] |
| --- | --- | --- | --- | --- | --- |
| C16U C71U | 0.000761 ± 6.6e-05 | 0.00136 ± 0.00015 | 0.00431 ± 0.00077 | 0.0356 ± 0.017 | 0.0301 ± 0.0059 |
| G29C U49A | < 1e-05 | – | – | – | < 1e-05 |
| C10G A12G G59U C61G | < 1e-05 | – | – | – | – |
| U30C A33G G66U C71G | < 1e-05 | – | – | – | < 1e-05 |
| U31G A64U | < 1e-05 | < 1e-05 | < 1e-05 | < 1e-05 | – |
| C50A C58U C61U G63U | < 1e-05 | – | – | – | – |
| G37C C68A | < 1e-05 | – | – | – | < 1e-05 |
| G40A G44A C70U | < 1e-05 | – | – | – | < 1e-05 |
| G32U G40U U46C U54G C70G | < 1e-05 | – | – | – | – |
| C11U C58G C68U | 7.67e-05 ± 2.5e-05 | 0.000349 ± 9.1e-05 | 0.000262 ± 7e-05 | – | 5.66e-05 ± 1.6e-05 |
| G7A G32A G51A G62C C68A | < 1e-05 | < 1e-05 | – | – | – |
| G13A G59U | < 1e-05 | – | – | – | – |
| U31A A36G A52C | < 1e-05 | – | – | – | < 1e-05 |
| C8A C11G U46G | < 1e-05 | – | – | – | < 1e-05 |
| G35A G44U U65A C70G | < 1e-05 | < 1e-05 | – | < 1e-05 | – |
| C8G A15U G62C | < 1e-05 | – | < 1e-05 | – | – |
| A6C U56C | < 1e-05 | < 1e-05 | – | – | – |
| G38U G40U | < 1e-05 | – | – | – | < 1e-05 |
| G38U A42U U49A G60U | < 1e-05 | – | – | – | < 1e-05 |
| A12U C16G U56G G59U | < 1e-05 | – | – | – | – |
| G7C C70A | < 1e-05 | < 1e-05 | < 1e-05 | < 1e-05 | < 1e-05 |
| G41A C61U | < 1e-05 | < 1e-05 | < 1e-05 | – | < 1e-05 |
| U31G U55G | 0.000486 ± 0.0001 | 0.000859 ± 0.00014 | 0.00296 ± 0.00071 | 0.0116 ± 0.0027 | 0.0152 ± 0.0067 |
| A6C G13C A52G | < 1e-05 | – | – | – | < 1e-05 |
| G35U A53C | – | < 1e-05 | – | < 1e-05 | < 1e-05 |
